Experimental data from publication PMC4882731 (Journal of the American Chemical Society, 2016).

B1: ChlI C244S Alexa Fluor 488 (natural protein, Synechocystis, UniProt P51634 1-357, looked up)
chain: MTATLAAPSKTRRVVFPFTAIVGQDEMKLALLLNVIDPKIGGVMIMGDRGTGKSTTIRALADLLPEIEVVANDPFNSSPSDPEMMSEEVRIRVDSQEPLSIVKKKVTMVDLPLGATEDRVCGTIDIEKALSEGVKAFEPGLLAKANRGILYVDEVNLLDDHLVDVLLDSAAGGWNTVEREGISIRHPARFVLVGSGNPEEGELRPQLLDRFGMHAEIRTVREPELRVKIVEQRTEFDQNPHPFSDQYQTEQEALQAKIVNAQNLLPQVTIDYDYRVKVSEVCAELDVDGLRGDIVTNRAAKALAAFEGRTEVTVDDISRVIVLCLRHRLRKDPLESIDSGSKVEKVFKRVFGVVDEA
modifications: Alexa Fluor 488 C5 maleimide label (labelled residue not stated)

Experiments:
[1] = biological target: ChlI, C-terminally attached to the surface via His6 tag (Synechocystis) (UniProt P51634); assay: single molecule force spectroscopy
ChlD wild-type = ChlD wild-type (Synechocystis, UniProt P72772 1-676); assay: MST
ChlD R289A = ChlD R289A (Synechocystis, UniProt P72772 1-676, R289A); assay: MST
ChlD R208A = ChlD R208A (Synechocystis, UniProt P72772 1-676, R208A); assay: MST
Chain of ChlD R208A (P72772 whole entry R208A): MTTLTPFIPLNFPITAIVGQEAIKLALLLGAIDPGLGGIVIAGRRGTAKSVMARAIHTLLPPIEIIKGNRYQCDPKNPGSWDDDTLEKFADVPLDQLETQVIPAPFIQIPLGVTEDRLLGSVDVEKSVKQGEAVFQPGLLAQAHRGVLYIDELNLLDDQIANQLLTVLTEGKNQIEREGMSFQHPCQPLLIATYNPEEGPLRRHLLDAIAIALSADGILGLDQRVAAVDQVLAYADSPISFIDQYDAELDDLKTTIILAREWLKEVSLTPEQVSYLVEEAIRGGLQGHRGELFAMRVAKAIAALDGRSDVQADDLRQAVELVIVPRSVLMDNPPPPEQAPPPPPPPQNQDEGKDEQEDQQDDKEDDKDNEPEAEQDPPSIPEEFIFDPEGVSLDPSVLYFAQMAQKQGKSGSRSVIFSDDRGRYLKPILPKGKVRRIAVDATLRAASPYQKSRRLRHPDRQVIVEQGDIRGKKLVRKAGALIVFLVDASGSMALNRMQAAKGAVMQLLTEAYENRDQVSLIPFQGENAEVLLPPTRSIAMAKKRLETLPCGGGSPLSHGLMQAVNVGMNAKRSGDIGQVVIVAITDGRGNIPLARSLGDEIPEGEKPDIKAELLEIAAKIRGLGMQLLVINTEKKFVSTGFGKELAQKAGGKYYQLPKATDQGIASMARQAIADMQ

Chain of ChlD wild-type (P72772 whole entry): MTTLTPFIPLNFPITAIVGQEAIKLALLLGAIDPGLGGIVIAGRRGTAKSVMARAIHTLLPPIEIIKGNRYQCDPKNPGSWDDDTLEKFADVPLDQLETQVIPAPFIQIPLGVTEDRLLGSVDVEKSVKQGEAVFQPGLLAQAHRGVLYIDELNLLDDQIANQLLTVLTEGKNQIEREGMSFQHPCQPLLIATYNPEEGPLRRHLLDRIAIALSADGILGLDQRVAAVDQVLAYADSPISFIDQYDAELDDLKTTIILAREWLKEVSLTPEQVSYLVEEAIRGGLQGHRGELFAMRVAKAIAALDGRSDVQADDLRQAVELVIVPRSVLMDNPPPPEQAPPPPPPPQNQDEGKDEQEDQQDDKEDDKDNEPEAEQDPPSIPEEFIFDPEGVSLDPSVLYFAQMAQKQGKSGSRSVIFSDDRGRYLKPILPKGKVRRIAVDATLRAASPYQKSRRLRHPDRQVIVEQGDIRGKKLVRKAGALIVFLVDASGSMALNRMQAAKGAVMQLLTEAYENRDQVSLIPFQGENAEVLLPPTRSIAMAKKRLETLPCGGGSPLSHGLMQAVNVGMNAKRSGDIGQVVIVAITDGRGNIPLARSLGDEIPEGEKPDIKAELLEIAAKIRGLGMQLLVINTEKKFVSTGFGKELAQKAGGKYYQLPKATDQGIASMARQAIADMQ
Chain of ChlD R289A (P72772 whole entry R289A): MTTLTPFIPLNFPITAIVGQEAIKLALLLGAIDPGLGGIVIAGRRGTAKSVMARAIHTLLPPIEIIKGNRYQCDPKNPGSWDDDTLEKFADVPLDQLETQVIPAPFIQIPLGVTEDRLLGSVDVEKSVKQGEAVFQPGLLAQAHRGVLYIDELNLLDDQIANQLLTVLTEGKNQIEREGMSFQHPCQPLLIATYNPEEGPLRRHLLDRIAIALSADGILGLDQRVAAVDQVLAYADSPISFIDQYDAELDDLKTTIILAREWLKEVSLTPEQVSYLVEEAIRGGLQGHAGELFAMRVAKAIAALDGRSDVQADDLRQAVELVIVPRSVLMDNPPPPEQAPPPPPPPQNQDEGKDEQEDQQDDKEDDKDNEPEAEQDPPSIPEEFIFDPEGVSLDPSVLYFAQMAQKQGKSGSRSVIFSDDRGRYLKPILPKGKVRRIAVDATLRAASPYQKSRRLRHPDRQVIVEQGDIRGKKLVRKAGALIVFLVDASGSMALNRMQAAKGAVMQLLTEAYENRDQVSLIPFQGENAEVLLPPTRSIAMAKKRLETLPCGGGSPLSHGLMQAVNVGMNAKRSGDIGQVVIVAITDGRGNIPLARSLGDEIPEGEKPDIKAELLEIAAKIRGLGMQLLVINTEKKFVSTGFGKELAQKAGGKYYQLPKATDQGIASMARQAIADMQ

Molecule	interaction probability [1] [%]	modal interaction force [1] [pN]	rupture force [1] [pN]	Kd (ChlD wild-type) [nM]	Kd (ChlD R289A) [nM]	Kd (ChlD R208A) [nM]
ChlD tagged at the C-terminus with a His6 sequence (from UniProt P72772 1-676) (natural protein)	30.5	108	109			
B1				7.6 ± 0.8	2540 ± 219	328 ± 67.7
